Experimental data reported in article PMC10003451, “Phosphorylated Peptide Derived from the Myosin Phosphatase Target Subunit Is a Novel Inhibitor of Protein Phosphatase-1” (International Journal of Molecular Sciences, 2023).

Legend:
[1] = tested on: native catalytic subunit of PP1 (PP1c); assay: Phosphatase assay of native PP1c with ^32P-MLC20 substrate; format: biochemical, rabbit skeletal muscle; conditions: PP1c 1.5–2.2 nM, 1 µM ^32P-MLC20, pH 7.4, 30 °C; n = 4
Description: Figure 2 Effects of a phosphorylated peptide from MYPT1 on the activity of PP1c, PP2Ac and myosin phosphatase holoenzyme (Flag-MYPT1-PP1c). (A): The native catalytic subunit of PP1 (PP1c; ▼,●) or PP2A (PP2Ac; ∆) purified from rabbit skeletal muscle or Flag-MYPT1-PP1c overexpressed and isolated from tsa201 cells (○) was assayed in the presence of dephosphorylated (▼) or phosphorylated (○,●,∆) MYPT1 peptide of R^690QSRRS(pT696)QGVTL^701 (P-Thr696-MYPT1^690−701) with ^32P-MLC20 substrate as described in Section 4. Values are mean ± SD (n = 4). Phosphatase activity in the absence of peptide was taken 100%. (B): Interaction of recombinant PP1cα with the phosphorylated peptide assessed by microscale thermophoresis (MST) or (C): with isotherm titration calorimetry (ITC) as described in Section 4. […] Only the axis text 'MYPT1^690-701 peptides' names the substance, and no target is printed. / Panel C: the picture prints no substance label for the ITC parameters.
The ^32Pi released from ^32P-MLC20 substrate were determined as previously described. The assay (80 µL) to determine the half-life of dephoshorylation for ^32P-MLC20 (10 µM) in the presence of various concentration of P-Thr696-MYPT1^690−701 (10–500 µM) was carried out in a similar fashion except that 5 µL aliquots were removed from the reaction mixture at different intervals for radioactivity measurements.

[2] = biological target: T1, recombinant PP1cα (rPP1cα) (Homo sapiens, UniProt P62136); assay: Microscale thermophoresis (MST); format: binding; conditions: rPP1cα 2 µM, peptide 9.16 nM-300 µM, 25 mM Tris/HCl, 100 mM NaCl, 1 mM DTT, 0.1% PEG 8000, pH 8.0; intrinsic fluorescence, Monolith NT.LabelFree
T1 construct: made in house; host or cells: E. coli
Description: The interaction of P-Thr696-MYPT1^690−701 and the recombinant PP1cα (rPP1cα) was studied by Monolith^TM NT.LabelFree (MST power: 40%; LED Power: 10%) instrument (NanoTemper Technologies GmbH, Munich, Germany). A 16-point two-fold P-Thr696-MYPT1^690−701 peptide dilution series was generated (9.16 nM-300 µM) in 25 mM Tris/HCl, 100 mM NaCl, 1 mM DTT, 0.1% PEG 8000, pH 8.0 and mixed with rPP1cα (2 µM). The mixtures were loaded into NT.LabelFree standard capillaries. The capillaries on the capillary tray were scanned and intrinsic fluorescence change of rPP1cα upon ligand binding was recorded. The data were analyzed by MO.Affinity Analysis v2.3 software.

[3] = biological target: T1, recombinant PP1cα (rPP1cα); assay: Isothermal titration calorimetry (ITC); format: binding; conditions: rPP1cα 0.5–2 µM, peptide 5–20 µM, 25 mM Tris/HCl (pH 8.0), 150 mM NaCl, 1 mM TCEP, 25 °C; one set of site model
Description: Isothermal titration calorimetry (ITC) experiments were carried out with MicroCal ITC200 instrument. rPP1cα was dialyzed in 25 mM Tris/HCl (pH 8.0), 150 mM NaCl, 1 mM TCEP (assay buffer) for 3 h first, then 16 h with a fresh batch of solution. Prior to measurements, rPP1cα (0.5–2 µM) was transferred into the sample cell of the calorimeter while the reference cell was filled with the assay buffer. P-Thr696-MYPT1^690−701 (5–20 µM) in the assay was applied to the syringe and 2 µL aliquot (19 times) was injected into the cell at a stirring rate of 300 rpm at 25 °C. The reference power was 5 µcal/s. The titration data were analyzed with MicroCal ITC-Origin software using one set of site model to obtain binding parameters of protein–ligand interaction.

T1 sequence (P62136 whole entry): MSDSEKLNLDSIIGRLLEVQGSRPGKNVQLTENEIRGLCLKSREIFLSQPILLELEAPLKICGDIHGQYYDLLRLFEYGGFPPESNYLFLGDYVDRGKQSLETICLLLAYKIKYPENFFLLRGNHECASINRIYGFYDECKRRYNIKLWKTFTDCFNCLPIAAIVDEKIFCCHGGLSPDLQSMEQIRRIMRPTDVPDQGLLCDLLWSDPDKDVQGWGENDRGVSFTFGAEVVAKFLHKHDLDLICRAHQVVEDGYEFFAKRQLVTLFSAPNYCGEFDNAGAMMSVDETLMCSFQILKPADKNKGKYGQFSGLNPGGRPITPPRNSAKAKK

MYPT1^690−701: synthesized MYPT1 peptide, non-phosphorylated (RQSRRSTQGVTL; UniProt O14974 690-701, looked up, fragment)
effect on PP1c activity [1]: without effect | KD by MST [2]: no MST or ITC signals suitable for quantitative evaluation were obtained | KD by ITC [3]: no MST or ITC signals suitable for quantitative evaluation were obtained
